Measured values taken from US12448462 (dated 2025).

T1: MUC1 (human, UniProt P15941 1039-1148)
T1 chain: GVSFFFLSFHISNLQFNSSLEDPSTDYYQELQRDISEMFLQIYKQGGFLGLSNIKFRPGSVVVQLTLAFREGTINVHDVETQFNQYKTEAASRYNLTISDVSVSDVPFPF

B1: anti-Muc1 T4E3 Fab (Fab, V domains shown)
VH: QVQLVQSGGGLVQPGGSLRLSCAASGFTFDDYAMHWVRQAPGKGLEWVSGISWNSGSIGYADSVKGRFTISRDNAKNSLYLQMNSLRAEDTALYYCAKDIGSGSYYNYYYGMDVWGQGTTATISS
VL: SSELTQDPAVSVALGQTVRITCQGDSLRSYYASWYQQKPGQAPVLVIYGKNSRPSGIPDRFSGSNSGSTASLTITGAQAEDEADYYCNSRDRYGNSLVIFGGGTKLTVL
B2: T4E3 scFv (scFv, V domains shown)
VH: B1 VH
VL: B1 VL

Biological target: T1, MUC1
Assay: flow

Binder | EC50 [nM]
B1 | 16
B2 | 7.48
